The target in the assay is HLA-A*02:01 (Homo sapiens, UniProt P04439, D140Y/D185E/D98H/E176V/E277Q/G131W/G231S/I119V/I121R/I166T/I218V/L300P/L318F/N151K/N90K/P208A/P217A/Q86G/Q94H/R138H/R169H/T345S). As to the kind of experiment: MHC binding assay (UV-ligand exchange, β2m ELISA). Particulars: MHC class I binding score; binding to HLA-A*02:01 ranged by peptide exchange yield (UV-ligand exchange, β2m ELISA). The text has this: Candidate peptides for T cell based therapies according to the present invention were further tested for their MHC binding capacity (affinity). The individual peptide-MHC complexes were produced by UV-ligand exchange, where a UV-sensitive peptide is cleaved upon UV-irradiation, and exchanged with the peptide of interest as analyzed. Only peptide candidates that can effectively bind and stabilize the peptide-receptive MHC molecules prevent dissociation of the MHC complexes. To determine the yield of the exchange reaction, an ELISA was performed based on the detection of the light chain (β2m) of stabilized MHC complexes. The assay was performed as generally described in Rodenko et al. (Rodenko et al., 2006).
96 well MAXISorp plates (NUNC) were coated over night with 2 ug/ml streptavidin in PBS at room temperature, washed 4× and blocked for 1 h at 37° C. in 2% BSA containing blocking buffer. Refolded HLA-A*02:01/MLA-001 monomers served as standards, covering the range of 15-500 ng/ml. Peptide-MHC monomers of the UV-exchange reaction were diluted 100 fold in blocking buffer. Samples were incubated for 1 h at 37° C., washed four times, incubated with 2 ug/ml HRP conjugated anti-β2m for 1 h at 37° C., washed again and detected with TMB solution that is stopped with […]. Absorption was measured at 450 nm. Candidate peptides that show a high exchange yield (preferably higher than 50%, most preferred higher than 75%) are generally preferred for a generation and production of antibodies or fragments thereof, and/or T cell receptors or fragments thereof, as they show sufficient avidity to the MHC molecules and prevent dissociation of the MHC complexes.
On the technique in general: In an ELISA, binding on a coated surface is turned into a signal by an enzyme label.
Turning to “86 (HTLPHEIVVNL; listed as Homo sapiens) [compound 86]”, the Peptide exchange result was “+++ (>50 = +++)”. Then “87 (IIDPPLHGQLL; listed as Homo sapiens) [compound 87]”, with “++ (>20% = ++)”; and “88 (ILDGIIREL; listed as Homo sapiens) [compound 88]”, with “+++ (>50 = +++)”; and “89 (ILDNSPAFL; listed as Homo sapiens) [compound 89]”, with “+++ (>50 = +++)”. For “90 (ILDYIHNGL; listed as Homo sapiens) [compound 90]” the value was “+++ (>50 = +++)”; for “91 (ILLDRLFSV; listed as Homo sapiens) [compound 91]”, “++++ (>75% = ++++)”; for “92 (KLPGFPTQDDEV; listed as Homo sapiens) [compound 92]”, “++ (>20% = ++)”.

“93 (LLAKAVQNV; listed as Homo sapiens) [compound 93]”: the Peptide exchange entry is “+++ (>50 = +++)”. Then “94 (LLDAFSIKL; listed as Homo sapiens) [compound 94]”, with “+++ (>50 = +++)”; and “95 (LLDALQHEL; listed as Homo sapiens) [compound 95]”, with “+++ (>50 = +++)”; and “96 (LLDMSLVKL; listed as Homo sapiens) [compound 96]”, with “+++ (>50 = +++)”.

With “97 (NLDATVTAL; listed as Homo sapiens) [compound 97]”, the Peptide exchange result is “+++ (>50 = +++)”.

Regarding “98 (NLPNTNSILGV; listed as Homo sapiens) [compound 98]”, the Peptide exchange result is listed as “+++ (>50 = +++)”. For “99 (NLPSELPQL; listed as Homo sapiens) [compound 99]” the value was “+++ (>50 = +++)”; for “100 (NLREILQNV; listed as Homo sapiens) [compound 100]”, “+++ (>50 = +++)”; for “101 (NVDENVAEL; listed as Homo sapiens) [compound 101]”, “++ (>20% = ++)”. Then “102 (RLPDQFSKL; listed as Homo sapiens) [compound 102]”, with “+++ (>50 = +++)”; and “103 (SLDAVMPHL; listed as Homo sapiens) [compound 103]”, with “+++ (>50 = +++)”; and “104 (SLDQIIQHL; listed as Homo sapiens) [compound 104]”, with “+++ (>50 = +++)”. For the substance “105 (SLKQTVVTL; listed as Homo sapiens) [compound 105]”, the Peptide exchange result was “+++ (>50 = +++)”. For “106 (TLSEICEFI; listed as Homo sapiens) [compound 106]” the value was “++++ (>75% = ++++)”. Then “107 (TLVAFLQQV; listed as Homo sapiens) [compound 107]”, with “++++ (>75% = ++++)”; and “108 (TVIRPLPGL; listed as Homo sapiens) [compound 108]”, with “++ (>20% = ++)”; and “109 (VIDDLIQKL; listed as Homo sapiens) [compound 109]”, with “++ (>20% = ++)”. Then “110 (VLDTLTKVL; listed as Homo sapiens) [compound 110]”, with “+++ (>50 = +++)”. With “111 (VLDVSFNRL; listed as Homo sapiens) [compound 111]”, the Peptide exchange result is on record as “+++ (>50 = +++)”.

In the case of “112 (VLPAVLTRL; listed as Homo sapiens) [compound 112]”, the Peptide exchange result is listed as “+++ (>50 = +++)”. For “113 (VLYSLVSKI; listed as Homo sapiens) [compound 113]” the value was “+++ (>50 = +++)”; for “114 (VVDDIVSKL; listed as Homo sapiens) [compound 114]”, “++ (>20% = ++)”; for “115 (YIDDVFMGL; listed as Homo sapiens) [compound 115]”, “+++ (>50 = +++)”.

On to “117 (KQQASQVLV; listed as Homo sapiens) [compound 117]”, for which the Peptide exchange result is “+++ (>50 = +++)”.

“118 (TMIEICEKL; listed as Homo sapiens) [compound 118]”: the Peptide exchange entry was “++++ (>75% = ++++)”. For “119 (SLGLGFISRV; listed as Homo sapiens) [compound 119]” the value was “+++ (>50 = +++)”. For “120 (QLMEGKVVL; listed as Homo sapiens) [compound 120]” the value was “++++ (>75% = ++++)”; for “122 (YVDDFGVSV; listed as Homo sapiens) [compound 122]”, “+++ (>50 = +++)”. Consider “123 (LLGEGIPSA; listed as Homo sapiens) [compound 123]”, for which the Peptide exchange entry is recorded as “++++ (>75% = ++++)”. Then “124 (FLPQKIIYL; listed as Homo sapiens) [compound 124]”, with “++++ (>75% = ++++)”. With “125 (YLFAFLNHL; listed as Homo sapiens) [compound 125]”, the Peptide exchange result was “++++ (>75% = ++++)”.

Consider “126 (SLIDFVVTC; listed as Homo sapiens) [compound 126]”, for which the Peptide exchange entry is “+++ (>50 = +++)”. Then “127 (TLISDIEAVKA; listed as Homo sapiens) [compound 127]”, with “+++ (>50 = +++)”; and “129 (VLPDDLSGV; listed as Homo sapiens) [compound 129]”, with “+++ (>50 = +++)”. Then “130 (GLVDVLYTA; listed as Homo sapiens) [compound 130]”, with “+++ (>50 = +++)”; and “131 (FVDPNGKISL; listed as Homo sapiens) [compound 131]”, with “+++ (>50 = +++)”; and “132 (FLDASGAKL; listed as Homo sapiens) [compound 132]”, with “++++ (>75% = ++++)”. For “134 (LLDEVLHTM; listed as Homo sapiens) [compound 134]” the value was “++++ (>75% = ++++)”; for “135 (FLDDQETRL; listed as Homo sapiens) [compound 135]”, “+++ (>50 = +++)”; for “136 (FAYDGKDYIAL; listed as Homo sapiens) [compound 136]”, “+++ (>50 = +++)”. On to “137 (ILPSNLLTV; listed as Homo sapiens) [compound 137]”, for which the Peptide exchange entry is “+++ (>50 = +++)”. For “138 (YLDKTFYNL; listed as Homo sapiens) [compound 138]” the value was “+++ (>50 = +++)”.

Regarding “139 (AVDATVNQV; listed as Homo sapiens) [compound 139]”, the Peptide exchange result is “+++ (>50 = +++)”. For “140 (RLEAYLARV; listed as Homo sapiens) [compound 140]” the value was “+++ (>50 = +++)”; for “141 (YVIDPIKGL; listed as Homo sapiens) [compound 141]”, “+++ (>50 = +++)”; for “142 (FVDGSAIQV; listed as Homo sapiens) [compound 142]”, “+++ (>50 = +++)”. Then “143 (ILDDSALYL; listed as Homo sapiens) [compound 143]”, with “++++ (>75% = ++++)”.

These data come from US10640547B2, “Immunotherapy against melanoma and other cancers” (IMMATICS BIOTECHNOLOGIES GMBH, priority 2016, dated 2020).
